Reference: patent publication US10010626B2, “Molecular constructs with targeting and effector moieties” (Immunwork Inc., priority 2015, dated 2018)

Tested on: CD3-Fc-fusion protein
Assay: ELISA analysis of TCO- and DBCO-conjugated scFv specific for CD3
Assay type: binding
Settings: anti-PD1 scFv negative control, anti-CD3 scFv positive control
Description: The DNA sequence encoding SEQ ID NO: 42 was synthesized and expressed as in the above Examples. The sequences of VL and VH of scFv specific for CD3 were those of VL and VH of mutated Teplizumab. For the conjugation with Mal-PEG3-TCO and Mal-PEG5-DBCO (Conju-probe, Inc.), the cysteine residue at the C-terminal end of the purified scFv of the mutated teplizumab was reduced by incubating 5 mM DTT at room temperature for 4 hours with gentle shaking. The buffer of reduced anti-CD3 scFv was exchanged to sodium phosphate buffer (100 mM sodium phosphate, pH7.0, 50 mM NaCl, and 5 mM EDTA) by using NAP-10 Sephadex G-25 column. After the reduction reaction and buffer exchange, conjugation was conducted overnight at room temperature in a reaction molar ratio of 1:1 ([Mal-PEG3-TCO or Mal-PEG5-DBCO:[scFv]]. The excess crosslinker was removed by a desalting column and the TCO-conjugated and DBCO-conjugated scFv products were analyzed.
The purity of TCO-conjugated scFvs specific for CD3 was identified through Coomassie staining of 12% SDS-PAGE (data not shown). FIG. 23A and […] show, respectively, the ELISA analysis of TCO-conjugated scFv and DBCO-conjugated scFv specific for CD3, in which anti-PD1 scFv and anti-CD3 scFv were used as a negative control and positive control, respectively.

Sequence of CD3-Fc-fusion protein (P07766 23-126 limits assumed): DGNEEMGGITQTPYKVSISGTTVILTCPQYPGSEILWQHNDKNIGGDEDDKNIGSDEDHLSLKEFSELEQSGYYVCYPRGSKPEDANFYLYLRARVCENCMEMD

| Molecule | binding to CD3-Fc-fusion protein (ELISA) |
| --- | --- |
| TCO-conjugated scFv: scFv of mutated teplizumab (SEQ ID NO: 42) conjugated with Mal-PEG3-TCO (protein, Mal-PEG3-TCO conjugate; mutated teplizumab scFv) scFv: DIQMTQSPSSLSASVGDRVTITCSASSSVSYMNWYQQTPGKAPKRWIYDTSKLASGVPSRFSGSGSGTDYTFTISSLQPEDIATYYCQQWSSNPFTFGQGTKLQITRGSTSGSGKPGSGEGSTKGQVQLVQSGGGVVQPGRSLRLSCKASGYTFTRYTMHWVRQAPGKGLEWIGYINPSRGYTNYNQKVKDRFTISRDNSKNTAFLQMDSLRPEDTGVYFCARYYDDHYSLDYWGQGTPVTVSSGGGGSGGGGSC | bound to CD3-Fc-fusion protein |
| DBCO-conjugated scFv specific for CD3: scFv of mutated teplizumab (SEQ ID NO: 42) conjugated with Mal-PEG5-DBCO (protein, Mal-PEG5-DBCO conjugate; mutated teplizumab scFv) scFv: DIQMTQSPSSLSASVGDRVTITCSASSSVSYMNWYQQTPGKAPKRWIYDTSKLASGVPSRFSGSGSGTDYTFTISSLQPEDIATYYCQQWSSNPFTFGQGTKLQITRGSTSGSGKPGSGEGSTKGQVQLVQSGGGVVQPGRSLRLSCKASGYTFTRYTMHWVRQAPGKGLEWIGYINPSRGYTNYNQKVKDRFTISRDNSKNTAFLQMDSLRPEDTGVYFCARYYDDHYSLDYWGQGTPVTVSSGGGGSGGGGSC | bound to CD3-Fc-fusion protein |
